In the supplement of paper PMC10126150:
± gives the standard deviation of the averaged measurements.

System: ATP
Assay: switch fluorescence ratio, 500 uM ATP over buffer (Cy3 cluster intensity, sum of 5 cycles each) (fold (ratio)); higher = stronger signal-on switching upon ATP binding; sequences stand for … in TCGTCGGCAGCGTCAGATGTGTATAAGAGACAGTTTTTTTTTTTTTTTTTTTTTTTTT…TC
Settings: aptamer strand: ATP DNA aptamer (quencher-CACCTGGGGGAGTATTGCGGAGGAAGG + anchor), 100 nM annealed; ATP concentration: 500 uM
How it was run: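 The fluorescence ratio divides summed target-cycle Cy3 intensity by summed buffer-cycle Cy3 intensity for each cluster and is averaged per switch-domain sequence. Cy3-labelled switching-strand clusters on a modified Illumina MiSeq flow-cell were annealed to 100 nM quencher-labelled ATP aptamer, then imaged in selection buffer and again after 15 min with 500 uM ATP at 22 °C. Five such cycles were run, with NaOH stripping and re-annealing between them, and clusters outside 100-1000 RFU were excluded.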
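Note: ATP exposure 15 min at 22 °C before imaging.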

Sequence	switch fluorescence ratio
TTTTCAAAAA	1.13 ± 0.19
TTTTCAAGGT	0.992 ± 0.019
TTTTCACCGT	1.06 ± 0.027
TTTTCAGAGT	1 ± 0.022
TTTTCAGGCG	1 ± 0.07
TTTTCATGGG	0.995 ± 0.013
TTTTCATTCC	1.13 ± 0.15
TTTTCATTGT	1.02 ± 0.036
TTTTCCAAAT	1.02 ± 0.024
TTTTCCCCGT	1.38 ± 0.56
TTTTCCGGGC	1.1 ± 0.014
TTTTCCTACG	2.38 ± 1.6
TTTTCCTGGA	1.03 ± 0.066
TTTTCCTTTT	1.04 ± 0.082
TTTTCGAGGG	1.01 ± 0.023
TTTTCGATGG	1.01 ± 0.016
TTTTCGATTG	1.01 ± 0.041
TTTTCGCTAA	1.55 ± 0.96
TTTTCGGGAA	1.011 ± 0.0057
TTTTCGGGGA	0.978 ± 0.018
TTTTCGGGTT	1 ± 0.04
TTTTCGTGGG	0.986 ± 0.027
TTTTCTATGT	1 ± 0.019
TTTTCTCCGT	1.3 ± 0.43

Sequence	switch fluorescence ratio
TTTTCTGCCG	1.03 ± 0.045
TTTTCTGGTT	0.97 ± 0.054
TTTTCTGTG	0.977 ± 0.031
TTTTCTGTTA	1.032 ± 0.0085
TTTTCTTATC	1.02 ± 0.048
TTTTCTTGGT	1.01 ± 0.012
TTTTCTTGTC	1.038 ± 0.0076
TTTTCTTGTT	0.9949 ± 0.0062
TTTTCTTTAA	0.9798 ± 0.0051
TTTTGAAATT	1 ± 0.046
TTTTGAACCC	0.984 ± 0.08
TTTTGAATCG	1.008 ± 0.0091
TTTTGACGCT	0.977 ± 0.012
TTTTGACGGA	0.994 ± 0.027
TTTTGAGCAC	1.16 ± 0.26
TTTTGAGGGC	1.01 ± 0.059
TTTTGAGGGG	1.01 ± 0.042
TTTTGATAAT	0.991 ± 0.016
TTTTGATCTA	0.97 ± 0.019
TTTTGATTCC	1.036 ± 0.009
TTTTGATTTC	1.02 ± 0.039
TTTTGATTTG	1 ± 0.034
TTTTGCAGCC	0.976 ± 0.02
TTTTGCAGGT	1.03 ± 0.026

Sequence	switch fluorescence ratio
TTTTGCATGA	1 ± 0.043
TTTTGCGAGG	1.03 ± 0.014
TTTTGCGCAA	0.9922 ± 0.0048
TTTTGCGCTC	1 ± 0.027
TTTTGCGCTG	0.94 ± 0.019
TTTTGCGGGT	0.983 ± 0.032
TTTTGCGGTC	1.02 ± 0.053
TTTTGCTGAC	1.14 ± 0.1
TTTTGCTGCG	1.023 ± 0.0033
TTTTGCTTGA	1.07 ± 0.052
TTTTGGAATG	1.011 ± 0.0027
TTTTGGAGCC	1.06 ± 0.046
TTTTGGAGCG	1.05 ± 0.052
TTTTGGAGGT	1.01 ± 0.013
TTTTGGATTA	1 ± 0.039
TTTTGGCCCC	1.07 ± 0.084
TTTTGGGAT	1.04 ± 0.15
TTTTGGGCTG	1 ± 0.067
TTTTGGGTAG	0.984 ± 0.03
TTTTGGGTAT	0.985 ± 0.032
TTTTGGGTGG	0.988 ± 0.034
TTTTGGTAAC	1.014 ± 0.0072
TTTTGGTATT	1.02 ± 0.044
TTTTGGTCAA	1.02 ± 0.037

Sequence	switch fluorescence ratio
TTTTGGTCCA	0.981 ± 0.015
TTTTGGTCGG	0.983 ± 0.022
TTTTGTAGTT	1 ± 0.043
TTTTGTATTA	0.99 ± 0.029
TTTTGTCGCG	0.9735 ± 0.0032
TTTTGTCTTT	1 ± 0.032
TTTTGTGACA	1 ± 0.027
TTTTGTGG	1.01 ± 0.073
TTTTGTGTA	0.994 ± 0.022
TTTTGTGTTT	0.997 ± 0.028
TTTTGTTAAT	1.01 ± 0.035
TTTTGTTCAG	0.985 ± 0.037
TTTTGTTCCT	1.02 ± 0.026
TTTTGTTGCG	1.03 ± 0.043
TTTTTAAATG	0.991 ± 0.017
TTTTTAACCT	1.57 ± 0.36
TTTTTAAGTT	1 ± 0.028
TTTTTAATGC	0.979 ± 0.034
TTTTTAATTA	1.005 ± 0.008
TTTTTAATTG	0.997 ± 0.024
TTTTTACCCG	1.01 ± 0.013
TTTTTACCGA	1.014 ± 0.0082
TTTTTAGACG	0.981 ± 0.057
TTTTTAGAG	0.999 ± 0.021

Sequence	switch fluorescence ratio
TTTTTAGAGA	0.9912 ± 0.007
TTTTTAGGGG	1.02 ± 0.055
TTTTTAGTAA	0.979 ± 0.028
TTTTTAGTAC	0.99 ± 0.013
TTTTTATGAG	1 ± 0.036
TTTTTATGCA	1.018 ± 0.0031
TTTTTATTAT	1.01 ± 0.036
TTTTTATTCT	1.02 ± 0.02
TTTTTATTGT	0.997 ± 0.035
TTTTTCAATC	1.07 ± 0.035
TTTTTCACTA	1.03 ± 0.033
TTTTTCAGGG	1.01 ± 0.026
TTTTTCAGGT	0.997 ± 0.015
TTTTTCCAAA	1 ± 0.041
TTTTTCCCGA	1.018 ± 0.0038
TTTTTCCCGG	1.17 ± 0.23
TTTTTCCGCT	1.86 ± 1
TTTTTCCGTA	1.02 ± 0.059
TTTTTCGAGG	0.997 ± 0.025
TTTTTCGATA	1.06 ± 0.029
TTTTTCGCTC	1.01 ± 0.042
TTTTTCGGGG	1.02 ± 0.032
TTTTTCGTTA	1.1 ± 0.083
TTTTTGAGTA	1.02 ± 0.03

Sequence	switch fluorescence ratio
TTTTTGATAC	1.063 ± 0.0034
TTTTTGCTTC	1.02 ± 0.043
TTTTTGGAAT	1 ± 0.028
TTTTTGGACC	1.1 ± 0.22
TTTTTGGATA	1.02 ± 0.014
TTTTTGGCCA	1.01 ± 0.051
TTTTTGGCCC	0.9649 ± 0.0018
TTTTTGGCGG	0.978 ± 0.038
TTTTTGGGAA	0.996 ± 0.029
TTTTTGGTGT	1.03 ± 0.036
TTTTTGTAAG	0.998 ± 0.043
TTTTTGTACG	0.998 ± 0.025
TTTTTGTCGC	0.992 ± 0.025
TTTTTGTCTT	0.96 ± 0.023
TTTTTGTGAC	0.999 ± 0.027
TTTTTGTGGC	0.985 ± 0.03
TTTTTGTGGG	0.993 ± 0.023
TTTTTGTTAC	1.08 ± 0.027
TTTTTGTTAG	0.965 ± 0.024
TTTTTGTTAT	0.996 ± 0.02
TTTTTTAAAT	0.987 ± 0.022
TTTTTTAACT	1 ± 0.046
TTTTTTAAGC	1.01 ± 0.018
TTTTTTAAGG	1 ± 0.034

Sequence	switch fluorescence ratio
TTTTTTACTG	0.991 ± 0.026
TTTTTTAGCC	1.02 ± 0.091
TTTTTTAGT	0.992 ± 0.027
TTTTTTATCT	1.05 ± 0.07
TTTTTTATGC	0.997 ± 0.018
TTTTTTCCCC	1.04 ± 0.047
TTTTTTCGCT	1.02 ± 0.047
TTTTTTCGTG	1.001 ± 0.0077
TTTTTTCTG	1.04 ± 0.097
TTTTTTGATA	0.981 ± 0.022
TTTTTTGC	0.955 ± 0.011
TTTTTTGCT	0.996 ± 0.039
TTTTTTGGCT	0.995 ± 0.025
TTTTTTGTAC	1.06 ± 0.037
TTTTTTTAAT	1 ± 0.028
TTTTTTTAGG	0.982 ± 0.03
TTTTTTTATG	0.989 ± 0.037
TTTTTTTATT	1 ± 0.03
TTTTTTTCAT	1 ± 0.028
TTTTTTTCCA	1.02 ± 0.013
TTTTTTTGCT	0.994 ± 0.024
TTTTTTTGTC	1.02 ± 0.028
TTTTTTTTTC	1.04 ± 0.11
TTTTTTTTTT	1.01 ± 0.083
